Measurements taken from article PMC9477280 (PLoS Pathogens, 2022).

Biological target: T1, MC1061 /EPEC intimin (Escherichia coli O127:H6, JPN15 …, UniProt P19809)
T1 construct: also called E. coli 1061/pInt (EPEC); EPEC intimin expressed on the surface of strain MC1061
Experiment: ELISA; dilution ELISA with intimin displayed on the surface of E. coli MC1061 as antigen; soluble thioredoxin/VHH/E-tag; EC50 estimates (apparent affinity)
Details: one partner purified

Binder | EC50 [nM]
JWS-H4 (VHH, also called αInt-12; JWZ-5 (vector name)) VHH: SGGGLVQAGGSLRLSCTTSASIFSGYRMGWFRQAPGKQREFVASIADGQNTPYADSVMGRFTISRDNAKNTVYLQMSNLKPEDTAIYYCKSWGYTDWGQGTQVTVSS | 10

Biological target: T2, EPEC Tir (enteropathogenic E. coli (EPEC), UniProt B7UM99)
T2 construct: also called GST-tagged EPEC Tir; recombinant his-tagged Tir
Experiment: ELISA; capture dilution ELISA; plate coated with 5 μg/mL of a non-competing VHH (no thioredoxin, no E-tag), antigen at 1 μg/mL captured for 1 h at 37°C (S1 Fig c-d: EPEC Tir, REPEC Tir); thioredoxin/VHH/E-tag from 125 nM in 1:5 serial dilutions; HRP anti-E-tag; EC50 estimates (apparent affinity); trace = EC50 >125 nM
Details: both partners purified

Binder | EC50 [nM]
JVB-C6 (VHH, also called αTir-1; JVG-1 (vector name); not shown: thioredoxin, N-terminal, kept; E-tag, C-terminal, kept) VHH: TGGGLVQPGGSLTLSCAASGFSITENAMGWARQVPGKGLEWVSLVYSGGNTYYAESIEGRFTISRDNAKNTVYLRMTSLKPEDTGVYYCAAREAVRVAGPPADVWGQGTQVTVSS | 50
JVB-G8 (VHH, also called αTir-3; JVG-3 (vector name); not shown: thioredoxin, N-terminal, kept; E-tag, C-terminal, kept) VHH: TGGGLVQAGGSLRLSCVASGFTFNDYVLTWFRQAPGKGREGVASISPAFGNTFYADSVKGRFTITSDSAKKQVCLQMNNLKSEDTAVYFCAADPTVNFGPVLRAENYRHWGQGTQVTVSS | 0.2
JVA-C9 (VHH, also called αTir-9; JVF-3 (vector name); not shown: thioredoxin, N-terminal, kept; E-tag, C-terminal, kept) VHH: TGGGLVQAGGSLRLSCVDSGRTFGDNAMGWFRQAPGKEREYVAAIGYNGDSTYYLNSVKGRFTISRDNAKNTLYLQMNSLQLEDTGVYICAAKTRVTTKEYDFWGQGTQVTVSS | 5
JVC-D10 (VHH, also called αTir-5; JVI-2 (vector name); not shown: thioredoxin, N-terminal, kept; E-tag, C-terminal, kept) VHH: TGGLVQTGDSLTLSCVVSGRGFCDWAMAWFRQAPGKEREKVSAIGWSGQDTYYSEPAKGRFTISRDNAKNTVWLRMTNLKSEDTAVYYCAAATRAYADYDYWGQGTQVTVSS | 0.2
JVC-E5 (VHH, also called αTir-6; JVI-3 (vector name); not shown: thioredoxin, N-terminal, kept; E-tag, C-terminal, kept) VHH: TGGGTVQAGSSLRLSCTASGFTFTDAAMGWFRQAPGKEREFVAAINWDSANKYYADSVKGRFTISRDNAKNTVYLEMTALKPEDTADYICAGDAKLGHVATSDVWRFWGQGTQVTVSS | 0.2
JVA-F6 (VHH, also called αTir-11; JVF-7 (vector name); not shown: thioredoxin, N-terminal, kept; E-tag, C-terminal, kept) VHH: SGGGLVQAGDSLRLSCVTSGRSFSEAAMGWFRQAPGKERELMTSIGWNGDRTYYADSVKGRFTISRDNAKNTVYLQMNGLTPNDTAVYYCAAAVRASKGYEYWGQGTQVTVSS | 25
JVA-D11 (VHH, also called αTir-12; JVF-8 (vector name); not shown: thioredoxin, N-terminal, kept; E-tag, C-terminal, kept) VHH: SGGGLVQAGGSLRLSCAASGFTFNDYAKAWFRRAPGKEREGISAISSMGESTFYADSVKGRFTISSDSAKNTVYLQMNSLKPEDTAVYYCAADPTVKWGHVLREENYDYWGQGTQVTVVS | 0.2
JVA-C8 (VHH, also called αTir-8; JVF-2 (vector name); not shown: thioredoxin, N-terminal, kept; E-tag, C-terminal, kept) VHH: SGGGLVQAGGSLRLSCAASGFTFVDYGIAWVRQAPGKEREGVSCVSTSNRSQWYADSVKGRFTISSDNAKNTVYLQMDNLKPEDTAVYYCTRIDVGDNCRDGGGYRGQGTQVTISS | 0.2
JVA-D4 (VHH, also called αTir-10; JVF-4 (vector name); not shown: thioredoxin, N-terminal, kept; E-tag, C-terminal, kept) VHH: TGGGLAQAGGSLRLSCATSGFTFADYAIGWFRQAPGKEREGVACISTSDNGQYSADSVKGRFTISKDNAKKTVYLQMNSLKPDDTAIYYCHLIDVGSNCRKGKDDGFWGQGTQVTVSS | 0.5
JVA-G1 (VHH, also called αTir-14; JVF-14 (vector name); not shown: thioredoxin, N-terminal, kept; E-tag, C-terminal, kept) VHH: SGGGLAQAGGSLKLSCVASGFTFADYAIGWFRQAPGKEREGVACISNSVGSTYYSDSVKGRVTISSDNVKKTVYLQMNSLKPEDTAFYYCALIDHGMNCRNSNGIHYWGKGTLVTVSS | 0.2
JVA-A1 (VHH, also called αTir-7; JVF-1 (vector name); not shown: thioredoxin, N-terminal, kept; E-tag, C-terminal, kept) VHH: SGGSVEAGDSLRLSCAASGRGFGDGALAWFRQAPGKEREYVAAVGHSGTDTYYADSVKGRFTISRDNAKNMGYLQMDSLRPDDTGVYYCALDLHLGQPGYDYWGQGTQVTVSS | 10
JVC-C6 (VHH, also called αTir-4; JVI-1 (vector name); not shown: thioredoxin, N-terminal, kept; E-tag, C-terminal, kept) VHH: SGGGLVQAGGSLRLSCAASGVTFVDYATGWFRQAPGKEREGIACISNGASGSFVVNSVKGRFTTSTDNAKNTAYLQMNDLKPEDTATYYCALLGRTGGHCTDPNEYSYWGQGTQVTVSS | 0.2
JVA-E10 (VHH, also called αTir-13; JVF-12 (vector name); not shown: thioredoxin, N-terminal, kept; E-tag, C-terminal, kept) VHH: SGGGLVQAGGSLRLSCVASGRTFSDYAMGWFRQAPGKEREFVAAISWNGGSTYYADSVKGRFTISRDNAKNTMYLQMNSLKSEDTAVYYCISEGRGLRQVKTATDWEYWGQGTQVTVSP | 0.2
JVB-G4 (VHH, also called αTir-2; JVG-2 (vector name); not shown: thioredoxin, N-terminal, kept; E-tag, C-terminal, kept) VHH: SGGGLVEAGGSLRLSCSASGRASGDGHLGWFGDGALAWFRQAPGKEREYVAAVGHSGTDTYYSDSVKGRFTISRDNAKSMGYLQMDNLRPDDTGIYYCALDLHLGQPGYDYWGQGTQVIVSS | 0.1

Biological target: C. rodentium EspA (Citrobacter rodentium ICC168 (parent of …, UniProt D2TKE3))
Experiment: ELISA; dilution ELISA; purified antigen coated directly on Nunc Maxisorp wells, typically 1 μg/mL in PBS overnight at 4°C, blocked with 4% milk in PBS 0.1% Tween; thioredoxin/VHH/E-tag from 125 nM in 1:5 serial dilutions, 1 h 37°C; detected with HRP anti-E-tag; EC50 estimates (apparent affinity); Trace = EC50 >125 nM, poor but detectable
Details: both partners purified

Binder | EC50 [nM]
JXF-C4 (VHH, also called αEspA-4; JXM-15 (vector name); not shown: thioredoxin, N-terminal, kept; E-tag, C-terminal, kept) VHH: SGGGLVQAGGSLRLSCVAYGRTANTFKEYAMGWFRHNPGEDHEFVGGISQNGDEAYFDDSVKGRFTPSRDNAKNTMYLQMNSLRPEDTAAYYCVAQRSSERLVGDMYSAMDSWGKGTLVTVST | 0.7
JXF-D8 (VHH, also called αEspA-2; JXM-8 (vector name); not shown: thioredoxin, N-terminal, kept; E-tag, C-terminal, kept) VHH: SGGALVQPGGSLRLSCAASGINLDYYAIGWFRQAPGKERKGVSCISHVDDDRIYYSDSVKGRFTISRDNAKNTVYLQMNSLEPEDTAVYYCATAGPSDYPCDLELWTYRRWGQGTQVTVSS | 0.7
JYB-H4 (VHH, also called αEspA-8; JYE-4 (vector name); not shown: thioredoxin, N-terminal, kept; E-tag, C-terminal, kept) VHH: SGGGLVQPGGSLRLSCAASGVTLEYYAIGWFRQVPGKEREGVSCISTSGAGTNYADSVKGRFTISKDNAKNTVYLQMNSLKPEDTAVYYCAARDFTEVPIGGCEWEYDYWGQGTQVTVSS | 0.5
JXF-H9 (VHH, also called αEspA-3; JXM-12 (vector name); not shown: thioredoxin, N-terminal, kept; E-tag, C-terminal, kept) VHH: SGGGLAQTGGSLRLSCAASGFRLEYYAVGWFRQAPGKEREGVSCLSGSDGSTYNAEFAKGRFTISRDDAKNTVYLLMNSLKPEDTAVYYCAVAGPSDYQCDLGTRWYHRWGQGTVVTVSA | 0.7
JYB-B1 (VHH, also called αEspA-5; JYE-1 (vector name); not shown: thioredoxin, N-terminal, kept; E-tag, C-terminal, kept) VHH: TGGGLVQAGGSLRLSCAISGFSLGDYAIGWFRQAPEKEREGVAFSGSLGNTYYPDSMKGRFTISRDDAENAVYLEMKNLKPEDTAVYRCTSGGTFDAVVLGLSTYWGQGTQVTVSS | 0.3
JYB-B8 (VHH, also called αEspA-6; JYE-2 (vector name); not shown: thioredoxin, N-terminal, kept; E-tag, C-terminal, kept) VHH: TGGGLVQPGGSLRLSCAASGFTFSTYWMYWVRQAPGKGLEWVSTIDTGGSDTYYADSVKGRFTISRDNVKNTLYLQMDNLKPEDTALYYCGSSRDIVIVTTLRDFDYWGQGTQVTVFS | 0.7
JYB-H6 (VHH, also called αEspA-9; JYE-5 (vector name); not shown: thioredoxin, N-terminal, kept; E-tag, C-terminal, kept) VHH: TGGGLVQPGGSLRLSCVASGFILDAYTIGWFRQAPGKEREGVASINGSGFSTNYADSVKGRFTISRDNAKNTVWLQMNSLKPEDTAVYYCAAALGLLTPRLESTPFDDWGQGTQVTVSS | 0.3
JYB-D1 (VHH, also called αEspA-7; JYE-3 (vector name); not shown: thioredoxin, N-terminal, kept; E-tag, C-terminal, kept) VHH: TGGGLVQAGGSLRLSCAASGNTFSYTAMAWFRQAPGKQRELVARISSGRGPTKYADSVKGRFTISRDNTLNTVWLQMNDLKPEDTAVYFCNTLKYSGESSYIAGDSWGQGTQVTVSS | 3
JXF-D7 (VHH, also called αEspA-1; JXM-6 (vector name); not shown: thioredoxin, N-terminal, kept; E-tag, C-terminal, kept) VHH: SGGGLVQTGGSLRLSCSASGFALEYYAVGWFRQAPGKEREGVSCFSGSDGSKFHAQFVKGRFTISLDKEKNTVDLTMNNLKPEDTAVYYCAVAGPSDHQCDLGMTWYHRWGQGTQVTVSS | 0.7

Biological target: EPEC flagella (Escherichia coli O127:H6 E2348/69 (EPEC), UniProt B7USU2)
Experiment: as above
Details: both partners purified

Binder | EC50 [nM]
JWU-H4 (VHH, also called JXA-5 (vector name); not shown: thioredoxin, N-terminal, kept; E-tag, C-terminal, kept) VHH: TGGGSVQPGGSLRLSCAPSGFSLAYYGVGWFRQAPGKEREALACISRFGDDTYYADSAKGRFTVSRDNAKNTVYLEMNNLKPEDTGVYYCAAGWVVVTDESCGSGDAYNYWGRGTQVTVSS | 10
JWU-F3 (VHH, also called JXA-1 (vector name); not shown: thioredoxin, N-terminal, kept; E-tag, C-terminal, kept) VHH: SGGGLVQPGGSLRLTCVSSLSDFRLTNMAWYRQTPGSERDVVAGISPNGITSYHASVQDRFNISRDNARKTLFLQMNSLKPEDSGVYYCNIRWGSLLPWGQGTQVTVSP | 0.2
JXE-B1 (VHH, also called JXK-1 (vector name); not shown: thioredoxin, N-terminal, kept; E-tag, C-terminal, kept) VHH: TGGGLVQAGDSLRLSCAASSGRNFSNYATGWFRQAPGKEQEFVASISRSGRSTYYADSAKGRFTISRDNARNTVYLQMNSLKPEDTADYYCAAHETQWPNGLGWVRGFYDLWGQGTQVTVSS | 0.1

Biological target: T3, EHEC intimin (Escherichia coli O157:H7 EDL933 (EHEC), UniProt P43261)
T3 construct: also called recombinant intimin (EHEC)
Experiment: as above
Details: both partners purified

Binder | EC50 [nM]
JWT-C1 (VHH, also called αInt-13; JWZ-7 (vector name)) VHH: SGGLVQPGGSLRLSCAASGFTLANSAIGWFRQAPGKGREAVSCISTSAGTTNYASSVKGRFTTARDNAKNMAYLQMDNLKSGDTGVYECAAGWSIDCSGYILPAADVWGQGTQVTVSS | 0.5

Biological target: T4, MC1061 expressing EHEC intimin (Escherichia coli O157:H7 EDL933 (EHEC), UniProt P43261)
T4 construct: also called E. coli 1061/pInt (EHEC); EHEC intimin expressed on the surface of strain MC1061
Experiment: ELISA; dilution ELISA with intimin displayed on the surface of E. coli MC1061 as antigen; soluble thioredoxin/VHH/E-tag; EC50 estimates (apparent affinity)
Details: one partner purified

Binder | binding result
JWS-H4 (VHH, also called αInt-12; JWZ-5 (vector name)) VHH: SGGGLVQAGGSLRLSCTTSASIFSGYRMGWFRQAPGKQREFVASIADGQNTPYADSVMGRFTISRDNAKNTVYLQMSNLKPEDTAIYYCKSWGYTDWGQGTQVTVSS | binds
